Test results published in article PMC4751602.

T1: GST-hnRNP-Q1 (UniProt O60506-3 1-562)
T1 sequence: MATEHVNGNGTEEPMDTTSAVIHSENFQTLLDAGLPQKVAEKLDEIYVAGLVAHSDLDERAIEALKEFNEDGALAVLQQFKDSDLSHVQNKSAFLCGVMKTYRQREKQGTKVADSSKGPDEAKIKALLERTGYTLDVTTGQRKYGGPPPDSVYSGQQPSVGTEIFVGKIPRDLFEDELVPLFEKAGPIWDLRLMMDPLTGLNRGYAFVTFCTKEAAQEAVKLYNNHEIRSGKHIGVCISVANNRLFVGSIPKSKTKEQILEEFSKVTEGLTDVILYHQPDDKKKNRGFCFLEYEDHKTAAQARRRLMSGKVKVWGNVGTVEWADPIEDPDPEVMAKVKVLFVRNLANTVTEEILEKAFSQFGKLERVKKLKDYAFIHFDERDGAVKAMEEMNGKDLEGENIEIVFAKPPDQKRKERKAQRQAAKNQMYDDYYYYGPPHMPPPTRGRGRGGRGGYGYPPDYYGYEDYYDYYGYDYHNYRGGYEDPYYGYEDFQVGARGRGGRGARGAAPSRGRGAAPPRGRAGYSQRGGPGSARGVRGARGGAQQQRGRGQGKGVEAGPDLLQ

T2: hnRNP-Q1 RGG box peptide (UniProt O60506-3 406-561)
T2 sequence: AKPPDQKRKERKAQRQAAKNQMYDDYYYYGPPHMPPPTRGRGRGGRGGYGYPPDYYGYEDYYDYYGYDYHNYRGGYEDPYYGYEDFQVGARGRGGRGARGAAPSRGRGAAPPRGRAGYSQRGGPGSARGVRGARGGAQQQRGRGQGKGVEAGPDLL


How the values were obtained:
GST-hnRNP-Q1 = target: T1, GST-hnRNP-Q1; test: biotin pull-down, GST immunoblot
hnRNP-Q1 RGG box peptide = target: T2, hnRNP-Q1 RGG box peptide; test: fluorescence spectroscopy

Row | Binder | binding result (GST-hnRNP-Q1) | Kd (hnRNP-Q1 RGG box peptide)
1 | GGGAGGGAGGGAGGGA (structured_RNA) [Gap-43 5'GQ (5' biotin)] | binds | –
2 | GGGAGGGAGGGAGGGAGAGC (structured_RNA, 2-aminopurine replaces A4) [2AP Gap-43 5'GQ RNA] | – | 131 ± 14 nM
